Key:
BSA = BSA (UniProt P02769 25-607); experiment: single-point ELISA, BSA control
gp120 Bal = gp120 Bal (HIV (Bal)); experiment: single-point ELISA at EC50 conc. of A-1
gp120 SHIV SF162 P3 = gp120 SHIV SF162 P3 (SHIV SF162 P3); experiment: single-point ELISA at EC50 conc. of A-1
gp120 CAAN = gp120 CAAN (HIV (CAAN)); experiment: single-point ELISA at EC50 conc. of A-1

B1: 1.34.35-1 (antibody, human IgG1, kappa, V domains shown)
VH: QVQLVQSGAEVKKPGASVRVSCKASGYNIRDYFIHWWRQAPGQGLQWVGWINPKTGQPNNPRQFQGRVTLTRHASWDFDTFSFYMDLKALRSDDTAVYFCARQRTDYWDFDVWGSGTQVTVSS
VL: DIQMTQSPSSLSASVGDRVTITCQANGYLNWYQQKPGKAPKLLIYDGSNLETGVPSRFSGSRWGQEYTLTISSLQPEDIATYFCQVYEFVGPGTNLDIKR
BSA
  ELISA A450: 0.06 A450
gp120 Bal
  ELISA A450: 0.94 A450
gp120 SHIV SF162 P3
  ELISA A450: 0.56 A450
gp120 CAAN
  ELISA A450: 0.77 A450

B2: 1.35.35-1 (antibody, human IgG1, kappa, V domains shown)
VH: QVQLVQSGAEVKKPGASVRVSCKASGYNIRDYFMHWWRQAPGQGLQWVGWINPKTGQPNNPRQFQGRVTMTRHASWDFDTFSFYMDLSRLRSDDTATYFCARQRTDYWDFDVWGQGTMVTVSS
VL: DIQMTQSPSSLSASVGDRVTITCQANGYLNWYQQKPGKAPKLLIYDGSNLETGVPSRFSGSRWGQEYTLTISSLQPEDIATYFCQVYEFVGPGTNLDIKR
BSA
  ELISA A450: 0.06 A450
gp120 Bal
  ELISA A450: 0.88 A450
gp120 SHIV SF162 P3
  ELISA A450: 0.42 A450
gp120 CAAN
  ELISA A450: 0.67 A450

B3: 1.36.35-1 (antibody, human IgG1, kappa, V domains shown)
VH: QVQLVQSGAEVKKPGASVRVSCKASGYNIRDYFMHWWRQAPGQGLQWVGWINPKTGQPNNPRQFQGRVTMTRHASWDFDTFSAYMDLSRLRSDDTATYFCARQRTDYWDFDVWGQGTMVTVSS
VL: DIQMTQSPSSLSASVGDRVTITCQANGYLNWYQQKPGKAPKLLIYDGSNLETGVPSRFSGSRWGQEYTLTISSLQPEDIATYFCQVYEFVGPGTNLDIKR
BSA
  ELISA A450: 0.06 A450
gp120 Bal
  ELISA A450: 0.89 A450
gp120 SHIV SF162 P3
  ELISA A450: 0.16 A450
gp120 CAAN
  ELISA A450: 0.36 A450

B4: 1.31.36-1 (antibody, human IgG1, kappa)
heavy: QVQLVQSGAEVTKPGASVRVSCEASGYNIRDYFIHWWRQAPGQGLQWVGWINPKTGQPNNPRQFQGRVSLTRHASWDFDTFSFYMDLKALRSDDTATYFCARQRSDYWDFDVWGSGTQVTVSSASTKGPSVFPLAPSSKSTSGGTAALGCLVKDYFPEPVTVSWNSGALTSGVHTFPAVLQSSGLYSLSSVVTVPSSSLGTQTYICNVNHKPSNTKVDKKVEPKSCDKTHTCPPCPAPELLAGPDVFLFPPKPKDTLMISRTPEVTCVVVDVSHEDPEVKFNWYVDGVEVHNAKTKPREEQYNSTYRVVSVLTVLHQDWLNGKEYKCKVSNKALPLPEEKTISKAKGQPREPQVYTLPPSREEMTKNQVSLTCLVKGFYPSDIAVEWESNGQPENNYKTTPPVLDSDGSFFLYSKLTVDKSRWQQGNVFSCSVLHEALHSHYTQKSLSLSPGK
light: DIQMTQSPSSLSASVGDRVTITCQANGYLNWYQQKPGKAPKLLIYDGSNLETGVPSRFSGSRWGQEYTLTISSLQPEDIATYFCQVYEFVTPGTNLDIKRTVAAPSVFIFPPSDEQLKSGTASVVCLLNNFYPREAKVQWKVDNALQSGNSQESVTEQDSKDSTYSLSSTLTLSKADYEKHKVYACEVTHQGLSSPVTKSFNRGEC
BSA
  ELISA A450: 0.06 A450
gp120 Bal
  ELISA A450: 1.06 A450
gp120 SHIV SF162 P3
  ELISA A450: 0.93 A450
gp120 CAAN
  ELISA A450: 0.9 A450

B5: 1.34.36-1 (antibody, human IgG1, kappa)
heavy: QVQLVQSGAEVKKPGASVRVSCKASGYNIRDYFIHWWRQAPGQGLQWVGWINPKTGQPNNPRQFQGRVTLTRHASWDFDTFSFYMDLKALRSDDTAVYFCARQRTDYWDFDVWGSGTQVTVSSASTKGPSVFPLAPSSKSTSGGTAALGCLVKDYFPEPVTVSWNSGALTSGVHTFPAVLQSSGLYSLSSVVTVPSSSLGTQTYICNVNHKPSNTKVDKKVEPKSCDKTHTCPPCPAPELLAGPDVFLFPPKPKDTLMISRTPEVTCVVVDVSHEDPEVKFNWYVDGVEVHNAKTKPREEQYNSTYRVVSVLTVLHQDWLNGKEYKCKVSNKALPLPEEKTISKAKGQPREPQVYTLPPSREEMTKNQVSLTCLVKGFYPSDIAVEWESNGQPENNYKTTPPVLDSDGSFFLYSKLTVDKSRWQQGNVFSCSVLHEALHSHYTQKSLSLSPGK
light: DIQMTQSPSSLSASVGDRVTITCQANGYLNWYQQKPGKAPKLLIYDGSNLETGVPSRFSGSRWGQEYTLTISSLQPEDIATYFCQVYEFVTPGTNLDIKRTVAAPSVFIFPPSDEQLKSGTASVVCLLNNFYPREAKVQWKVDNALQSGNSQESVTEQDSKDSTYSLSSTLTLSKADYEKHKVYACEVTHQGLSSPVTKSFNRGEC
BSA
  ELISA A450: 0.07 A450
gp120 Bal
  ELISA A450: 0.94 A450
gp120 SHIV SF162 P3
  ELISA A450: 0.77 A450
gp120 CAAN
  ELISA A450: 0.71 A450

B6: 1.32.36-1 (antibody, human IgG1, kappa)
heavy: QVQLVQSGAEVTKPGASVRVSCEASGYNIRDYFIHWWRQAPGQGLQWVGWINPKTGQPNNPRQFQGRVSLTRHASWDFDTFSFYMDLKALRSDDTAVYFCARQRTDYWDFDVWGSGTQVTVSSASTKGPSVFPLAPSSKSTSGGTAALGCLVKDYFPEPVTVSWNSGALTSGVHTFPAVLQSSGLYSLSSVVTVPSSSLGTQTYICNVNHKPSNTKVDKKVEPKSCDKTHTCPPCPAPELLAGPDVFLFPPKPKDTLMISRTPEVTCVVVDVSHEDPEVKFNWYVDGVEVHNAKTKPREEQYNSTYRVVSVLTVLHQDWLNGKEYKCKVSNKALPLPEEKTISKAKGQPREPQVYTLPPSREEMTKNQVSLTCLVKGFYPSDIAVEWESNGQPENNYKTTPPVLDSDGSFFLYSKLTVDKSRWQQGNVFSCSVLHEALHSHYTQKSLSLSPGK
light: DIQMTQSPSSLSASVGDRVTITCQANGYLNWYQQKPGKAPKLLIYDGSNLETGVPSRFSGSRWGQEYTLTISSLQPEDIATYFCQVYEFVTPGTNLDIKRTVAAPSVFIFPPSDEQLKSGTASVVCLLNNFYPREAKVQWKVDNALQSGNSQESVTEQDSKDSTYSLSSTLTLSKADYEKHKVYACEVTHQGLSSPVTKSFNRGEC
BSA
  ELISA A450: 0.06 A450
gp120 Bal
  ELISA A450: 0.92 A450
gp120 SHIV SF162 P3
  ELISA A450: 0.62 A450
gp120 CAAN
  ELISA A450: 0.64 A450

B7: 1.33.36-1 (antibody, human IgG1, kappa)
heavy: QVQLVQSGAEVKKPGASVRVSCKASGYNIRDYFIHWWRQAPGQGLQWVGWINPKTGQPNNPRQFQGRVTLTRHASWDFDTFSFYMDLKALRSDDTATYFCARQRSDYWDFDVWGSGTQVTVSSASTKGPSVFPLAPSSKSTSGGTAALGCLVKDYFPEPVTVSWNSGALTSGVHTFPAVLQSSGLYSLSSVVTVPSSSLGTQTYICNVNHKPSNTKVDKKVEPKSCDKTHTCPPCPAPELLAGPDVFLFPPKPKDTLMISRTPEVTCVVVDVSHEDPEVKFNWYVDGVEVHNAKTKPREEQYNSTYRVVSVLTVLHQDWLNGKEYKCKVSNKALPLPEEKTISKAKGQPREPQVYTLPPSREEMTKNQVSLTCLVKGFYPSDIAVEWESNGQPENNYKTTPPVLDSDGSFFLYSKLTVDKSRWQQGNVFSCSVLHEALHSHYTQKSLSLSPGK
light: DIQMTQSPSSLSASVGDRVTITCQANGYLNWYQQKPGKAPKLLIYDGSNLETGVPSRFSGSRWGQEYTLTISSLQPEDIATYFCQVYEFVTPGTNLDIKRTVAAPSVFIFPPSDEQLKSGTASVVCLLNNFYPREAKVQWKVDNALQSGNSQESVTEQDSKDSTYSLSSTLTLSKADYEKHKVYACEVTHQGLSSPVTKSFNRGEC
BSA
  ELISA A450: 0.06 A450
gp120 Bal
  ELISA A450: 0.94 A450
gp120 SHIV SF162 P3
  ELISA A450: 0.88 A450
gp120 CAAN
  ELISA A450: 0.82 A450
